Data set [1] deals with the molecule itself. Briefly: native MS.
Data set [2] has as its target tryptophan synthase α-subunit TrpA from Zea mays, wild type (Zea mays). Briefly: activity titration.

B1: tryptophan synthase β-subunit TrpB1 from Zea mays (enzyme)
chain: GRFGGKYVPETLMHALTELENAFHALATDDEFQKELDGILKDYVGRESPLYFAERLTEHYKRADGTGPLIYLKREDLNHRGAHKINNAVAQALLAKRLGKQRIIAETGAGQHGVATATVCARFGLQCIIYMGAQDMERQALNVFRMKLLGAEVRAVHSGTATLKDATSEAIRDWVTNVETTHYILGSVAGPHPYPMMVREFHKVIGKETRRQAMHKWGGKPDVLVACVGGGSNAMGLFHEFVEDQDVRLIGVEAAGHGVDTDKHAATLTKGQVGVLHGSMSYLLQDDDGQVIEPHSISAGLDYPGVGPEHSFLKDIGRAEYDSVTDQEALDAFKRVSRLEGIIPALETSHALAYLEKLCPTLPDGVRVVLNCSGRGDKDVHTASKYLDV
Consider B1, for which, in data set [1], the “stoichiometry N” value is 2. Further, in data set [2], the Kd was 500 nM.

Broadly, the stoichiometry N is a count of units in the complex or per binding partner. As usually defined, the Kd is the constant that tells how readily two partners part at equilibrium.

For the origin of these results see paper PMC7293203 (Chembiochem : a European journal of chemical biology, 2019).
